# Experimental data reported in CN113045662A (SEEBIO BIOTECHNOLOGY SHANGHAI CO LTD, dated 2021).
# Biological target: T1, PD-L1-Ig-V (UniProt Q9NZQ7 19-134)
# T1 construct: domain: Ig-V; also called PD-L1胞外域蛋白; not shown: His-Tag from the pET-28a vector
# Experiment: non-competitive checkerboard ELISA, mean of 6 K values
# T1 sequence (Q9NZQ7 19-134): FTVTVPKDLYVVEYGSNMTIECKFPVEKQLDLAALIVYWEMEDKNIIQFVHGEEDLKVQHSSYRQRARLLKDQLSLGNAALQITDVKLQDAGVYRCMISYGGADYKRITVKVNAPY
binder,measurement,value
"PD-L1-Ig-V-VHH 6-21 (VHH, Nanobody from a synthetic phage display library (pCANTAB5E, M13K07 helper phage); also called 6-21号克隆) VHH: DVQLQASGGGLVQAGGSLRLSCAASRMIFSTFSIQDMGWYRQAPGKQRDLVALITSDGSTNYADSVKGRFTISRDNAKSTVYLQMNNLKPEDTAVYYCAATDNVSGGRLLLNIWWMRDMWYNYWGQGTLVTVSS",Ka,~1.93e+08 M⁻¹
